Laboratory results taken from patent US20130184223A1, “METHODS AND COMPOSITIONS RELATED TO MODULATING AUTOPHAGY” (UNIVERSITY OF ROCHESTER, priority 2010, published 2013).
Entries after “also recorded” stand apart in the source; their conditions may differ.

B1: Atg12: over-expressed 3× Flag-tagged Atg12, a gene required for autophagosomal formation (protein, UniProt O94817 1-140, looked up)
Ubiquitin-like protein ATG12: MAEEPQSVLQLPTSIAAGGEGLTDVSPETTTPEPPSSAAVSPGTEEPAGDTKKKIDILLKAVGDTPIMKTKKWAVERTRTIQGLIDFIKKFLKLVASEQLFIYVNQSFAPSPDQEVGTLYECFGSDGKLVLHYCKSQAWG
modifications: 3x Flag tag
notes: over-expressed 3× Flag-tagged Atg12, a gene required for autophagosomal formation
B2: Rab5a DN: 3× Flag-tagged Rab5a S34N dominant negative mutant, inhibitor of endocytosis (protein, UniProt P20339 1-215, looked up, variant S34N)
Ras-related protein Rab-5A: MASRGATRPNGPNTGNKICQFKLVLLGESAVGKNSLVLRFVKGQFHEFQESTIGAAFLTQTVCLDDTTVKFEIWDTAGQERYHSLAPMYYRGAQAAIVVYDITNEESFARAKNWVKELQRQASPNIVIALSGNKADLANKRAVDFQEAQSYADDNSLLFMETSAKTSMNVNEIFMAIAKKLPKNEPQNPGANSARGRGVDLTEPTQPTRNQCCSN
modifications: 3x Flag tag

Legend:
[1] = tested on: mp53/Ras transformed cells and CAPAN-2 cells; assay: Immunocompromised mouse tumorigenicity assay, cells expressing autophagy modulators; assay type: in vivo; conditions: cells expressing the protein or shRNA vs vector control, 5×10^5 cells per injection, 4 weeks mp53/Ras, 5 weeks CAPAN-2
Description: To determine whether cooperative up-regulation of autophagy is required for tumorigenesis Atg12, a gene involved in autophagosome formation, was knocked-down using two independent constructs in mp53/RasV12 and Capan-2 cells. In addition, a genetic rescue experiment was performed by introducing a shRNA resistant form of ATG12 into these cell backgrounds to test for ATG12 specificity of the observed effects. Tumor formation was inhibited by Atg12 KD in both mp53/Ras and CAPAN-2 cell lines and was rescued by expression of the exogenous shRNA resistant Atg12 (FIG. 4.5a, 4.5c).
Cells were cultured on 15 cm dishes for two days without selective antibiotics at 39 C for mp53/Ras cells and at 37 C for HT-29, CAPAN-2, PANC-1, and 5 Panc10.05. Cells were plated at the following densities: mp53/Ras—7.5×10^5, HT-29 —1.5×10^6, CAPAN-2 —4×10^6, PANC—4×10^6, and PANC 10.05—2×10^6. Cells were trypsinized, counted and re-suspended in RPMI medium lacking supplements for mp53/Ras, CAPAN-2, and Panc10.05, and DMEM lacking supplements for HT-29 and PANC-1 at a density of 5×10^5/100 ul for mp53/Ras and CAPAN-2 cells, 1.25×10^5/100 ul for HT-29 cells, 5×10^6/100 ul for PANC-1, 2×10^6/100 ul for Panc10.05. Matrigel (BD biosciences) was mixed with PANC-1 and Panc10.05 cell/medium mixture at a 1:1 ratio. Cell mixtures were then injected intra-dermally, bilaterally into the flanks of CD1-Foxn1 nude mice (Uracell) […]) in the following numbers: mp53/Ras cells, HT29 1.25×10^5 cells, 5×10^5 CAPAN-2-cells. Cell mixtures were injected intradermally, bilaterally into the flanks of NOD/SCID (UCAR-20060-166 (1)) mice in the following cell numbers per injection: PANC-1 —2.5×10^6 cells and Panc10.05 —1×10^6 cells. Tumor volume was measured every week for 4 weeks for mp53/Ras and HT-29 cells, 5 weeks for CAPAN-2 cells, and 6 weeks for PANC-1.

[2] = tested on: mp53/Ras transformed cells and CAPAN-2 cells; assay: Immunoblot of p62 and LC3 in cells expressing autophagy modulators; assay type: cell-based; conditions: cells expressing the protein vs vector control
Excerpt: Thus, the effects of Plac8 KD on both tumor formation and autophagy can be suppressed by constitutive activation of Rab7.
(§1) Moreover, the molecular machinery employed in autophagosomal/lysosomal fusion, such as Rab7, is required for endosomal/lysosomal fusion, which is also required for tumor formation in some cancers.
To determine if the Plac8 KD-induced loss of tumor formation is specifically due to a loss of autophagy completion, Atg12, a gene required for autophagosomal formation, was overexpressed in Plac8 KD cells.
YAMC, vector, mp53, Ras, and mp53/Ras cells were cultured for two days at 39 C in RPMI with 10% FBS medium and gentamicin in collagen-I coated 15 cm dishes. HT-29, CAPAN-2, PANC-1 and Panc 10.05 cells were cultured for two days at 37 C in maintenance media without selective antibiotics on 15 cm dishes. […] Protein concentration was quantified using Bradford reagent (BioRad) and a Genesys 1 0UV spectrophotometer (Spectronic Unicam). […]

[3] = tested on: mp53/Ras transformed and CAPAN-2 cells; assay: Endocytosis of fluorescently labeled dextran; assay type: cell-based; conditions: 50 uM Alexa-488 dextran for 1 hr; confocal microscopy and FACS
Description: as §1
Cells were plated at 2.5×10^5 cells for vector and Rab5a DN mp53/Ras cells on collagen-I coated 10 cm dishes, and 7.5×10^5 cells for vector and Rab5a DN CAPAN-2 cells on 10 cm dishes and allowed to proliferate for two days in maintenance media. Cells were then treated with 50 uM of Alexa-488 labeled 10,000 MW dextran (Invitrogen) for 1 hr in maintenance medium. The cells were then washed 3× with PBS and trypsinized. Cells were pelleted, resuspended in PBS with 1% BSA, transferred to FACS tubes (Falcon), and placed on ice. DAPI was added to a final concentration of […] and cells were FACS analyzed for Alexa-488 signal, with DAPI exclusion of dead cells. To image cells mp53/Ras and CAPAN-2 cells infected with vector control virus or stabily expressing Rab5a DN were plated onto glass coverslips as described in the immunofluorescent staining of cells section. Cells were then treated with 50 uM of Alexa-488 labeled 10,000 MW dextran for 1 hr in maintenance medium. The media containing dextran was removed and the cells were washed 3 times with PBS. […]

Molecule	tumor formation in nude mice [1]	p62 and LC3 protein levels [2]	tumor formation in nude mice ([1]; listed as DN Rab5a)	endocytosis of Alexa488 labeled dextran [3]
B1	tumor inhibitory; also recorded: inhibits tumor formation	p62 and LC3 protein levels were suppressed	–	–
B2	increased tumor size over vector control	no effect on p62 or LC3 levels	slightly enhanced tumor formation in transformed YAMC cells and no effect on Capan-2 cells	inhibits endocytosis of Alexa488 labeled dextran
